In PMC4829874:

Target: protein A/G
Assay: SPR; real-time, microfluidic cell on the nanostructured gold film, white light and CCD detector, 0.1 Hz; protein A/G (0.5 mg/mL, 1 h, 30 uL/min) immobilised, flushed with PBS; IgG 10 ug/mL injected at 30 uL/min; 10 mM PBS

For IgG (antibody), the resonance peak shift at 10 ug/mL IgG was 2 nm.
